Columns and labels:
Type in all cases: cell-based, human
T47D cells [1] = test: GDNF-induced Erk (MAPK) activation after siRNA transfection, immunoblot; conditions: 72 hrs after siRNA transfection, 10 ng/ml GDNF with 100 ng/ml GFRα1 for 30 min
Experimental: (§1) MCF7 and T47D cells are seeded at 5×10^5/4 ml in 6 cm plates for 24 hrs. Cells are transfected with siRNAs targeting Ret (siRet1: […] siRet2: […]; Qiagen) or a control siRNA targeting LacZ ([…]) using Oligofectamine (12252-011, Invitrogen) and HiPerFect, respectively. After 72 hrs, cells are stimulated with 10 ng/ml GDNF alone (for 10 min in MCF7) or together with 100 ng/ml GFRα1 (for 30 min in T47D; rhGFRα1/Fc chimera 714-GR, R&D Systems), extracted and resolved by 12.5% SDS-PAGE electrophoresis and immunoblot analysis is performed using rabbit polyclonal antibodies against Erk (MAPK) and phospho-Erk (p-MAPK: see FIG. 7).

MCF7 cells [2] = test: as above; conditions: 72 hrs after siRNA transfection, 10 ng/ml GDNF for 10 min
Experimental: as §1

Ret = Ret expression after siRNA transfection (Western blot and PCR) in MCF7 cells; conditions: 20 nM siRNA
Experimental: MCF7 cells are seeded at a density of 10^5 cells/well in 6 well plates. 24 hours after seeding, cells are transfected with control lacZ siRNA or Ret siRNA (Qiagen, 96165/96166) at a final siRNA concentration of 20 nM using HiPerFect transfection reagent (Qiagen, 301705). siRNA targeting sequences are as following:
Ret9 and Ret51 protein expression is analyzed 72 hours post siRNA transfection using polyclonal antibodies from Santa Cruz (C-19 against Ret9: sc-167; C-20 against Ret51: sc-1290) and direct Western Blot analysis with 50 μg of total protein extract (FIG. 2 Panel A). […] As a control, total RNA is extracted in a parallel experiment (RNeasy, 74104, Qiagen). First-strand cDNA is synthesized using SuperScript III First-Strand Synthesis System for RT-PCR (Invitrogen, 18080-051), using random hexamer primers.

T47D cells [3] = test: Soft agar colony assay (anchorage-independent proliferation); conditions: 10 or 100 ng/ml GDNF with 100 ng/ml GFRα1, every week for 4 weeks
Experimental: (§2) MCF7 and T47D cells are treated with 10 or 100 ng/ml GDNF alone (MCF7) or together with 100 ng/ml GFRα1 (T47D) for 10 to 20 min in suspension and subsequently seeded at 10^5/2 ml in 6-well plates in a soft agar layer. Cells are treated again with GDNF alone or together with GFRα1 every week for 4 weeks in fresh medium. Colonies are stained with nitrotetrazolium blue and counted (Artek counter 880, Dynatech Laboratories).

MCF7 cells [4] = test: as above; conditions: 10 or 100 ng/ml GDNF alone, every week for 4 weeks
Experimental: as §2

T47D cells [5] = test: Anchorage-independent cell proliferation (polyheme assay); conditions: 10 ng/ml GDNF with 100 ng/ml GFRα1 for 4 days, polyheme-coated plates
Experimental: (§3) MCF7 and T47D cells are seeded at 5×10^5/4 ml in 6 cm plates coated with polyheme (P3932, Sigma) to prevent adhesion of the cells to the substratum. Cells are treated with 10 ng/ml GDNF alone (MCF7) or together with 100 ng/ml GFRα1 (T47D) for 4 days. Cells were collected, trypsinized and counted (Vi-cell XR, Beckman Coulter).
(§4) MCF7 and T47D cells are seeded at 10^6/4 ml in 6 cm plates coated with polyheme. Cells are pretreated with 100 nM of a Ret inhibitor [repeat name of compound from earlier] or the vehicle DMSO for 1 hr, and then treated with 10 ng/ml GDNF alone (MCF7) or together with 100 ng/ml GFRα1 (T47D) for 4 days. Cells are collected, trypsinized and counted (Vi-cell XR, Beckman Coulter).

MCF7 cells [6] = test: as above; conditions: 10 ng/ml GDNF alone for 4 days, polyheme-coated plates
Experimental: as §3, §4

T47D cells [7] = test: GDNF stimulation of Erk and JNK/SAPK phosphorylation, immunoblot; conditions: 100 ng/ml GDNF, 5 min to 8 hrs
Experimental: (§5) MCF7 and T47D cells are seeded at 3×10^6/15 ml and 3×10^6/10 ml in 15 and 10 cm plates for 2 days respectively. Cells are serum deprived (0.1% FCS) for 16 to 24 hrs or refed with normal medium. Cells are stimulated with 100 ng/ml GDNF (450-10, PeProTech) for 5, 10, 20, or 30 min 1, 4 or 8 hrs. Cell extracts are resolved by 10 or 12.5% SDS-PAGE electrophoresis and immunoblot analysis is performed using rabbit polyclonal antibodies raised against Erk (MAPK: 9102, Cell Signaling Technology) phospho-Erk (P-MAPK: […]; 9101) JNK/SAPK (9251) and phospho-JNK/phospho-SAP (Thr183/Tyr185; 9252) (see FIG. 6).

MCF7 cells [8] = test: as above; conditions: 100 ng/ml GDNF, 5 min to 8 hrs
Experimental: as §5

Molecule	GDNF-induced activation of Erk (MAPK) (T47D cells [1])	GDNF-induced activation of Erk (MAPK) (MCF7 cells [2])	Ret9 protein expression (Western blot signal) (Ret; 72 hours post transfection, antibody C-19)	Ret51 protein expression (Western blot signal) (Ret; 72 hours post transfection, antibody C-20)	Ret mRNA expression (PCR) (Ret; parallel experiment)	number of colonies in soft agar (T47D cells [3])	number of colonies in soft agar (MCF7 cells [4])	anchorage-independent cell proliferation (cell count) (T47D cells [5])	anchorage-independent cell proliferation (cell count) (MCF7 cells [6])	phosphorylation of Erk (T47D cells [7])	phosphorylation of JNK/SAPK (T47D cells [7])	phosphorylation of Erk (MCF7 cells [8])	phosphorylation of JNK/SAPK (MCF7 cells [8])
siRet2: siRNA targeting Ret, TAGGCTGGTTCTCAACCGGAA (Qiagen) (target sequence only, siRNA duplex strands not listed, further chemistry not given here)	prevents	prevents											
siRet1: siRNA targeting Ret, targeting sequence CCGCTGGTGGACTGTAATAAT (Qiagen) (target sequence only, siRNA duplex strands not listed, further chemistry not given here)	prevents	prevents	reduction in signal	reduction in signal	reduction in Ret mRNA								
GDNF: glial-derived neurotrophic factor, specific ligand of Ret (450-10, PeProTech) (protein, UniProt P39905 78-211, looked up, recombinant, PeProTech) Glial cell line-derived …: SPDKQMAVLPRRERNRQAAAANPENSRGKGRRGQRGKNRGCVLTAIHLNVTDLGLGYETKEELIFRYCSGSCDAAETTYDKILKNLSRNRRLVSDKVGQACCRPIAFDDDLSFLDDNLVYHILRKHSAKRCGCI						significantly increased the number of colonies in a concentration-dependent manner	significantly increased the number of colonies in a concentration-dependent manner	significantly enhances	significantly enhances	increased phosphorylation	increased phosphorylation	increased phosphorylation	increased phosphorylation
